Test results as given in publication PMC6101544.

Molecular target: DNA polymerase beta (pol beta), [13CH3-Met,13CH3-Ile] labelled (UniProt P06746 1-335)
Assay: NMR 1H-13C HMQC chemical shift perturbation, methyl-TROSY CPMG; binary complex; 5 mM MgCl2; ~175 uM pol beta, 10% excess DNA; D2O buffer: 50 mM Tris-d11 pH 7.6, 150 mM KCl, 5 mM MgCl2 (none for apoenzyme), 1 mM CDTA, 1 mM DTT, 0.1 mM AEBSF, 0.04% NaN3, 50 uM DSS; 35 C for assignment of

B1: 1-nt-gapped double hairpin DNA (templating dT in gap) (structured_DNA)
DNA: GGCGAAGCCTGGTGCGAAGCACC
binding result: binds
